These results are taken from patent US20250269046A1, “CELLULAR UPTAKE OF LARGE BIOMOLECULES ENABLED BY CELL-SURFACE-REACTIVE CELL-PENETRATING PEPTIDE ADDITIVES” (FORSCHUNGSVERBUND BERLIN E.V., priority 2021, published 2025).

For assay [1], the target named is endogenous mitochondrial receptor TOMM20 (in HeLa CCL-2 cells) (UniProt Q15388). In words: cell-based or functional assay.
Assay [2] concerns the target Lifeact-mVenus (GFP mutant, expressed in transfected HeLa CCL-2 cells). In words: confocal microscopy of live HeLa CCL-2 cells transfected with Lifeact-mVenus after delivery of 500 nM antibody with TNB-R10; colocalization of antibody and mVenus signals.

Chain of endogenous mitochondrial receptor TOMM20 (in HeLa CCL-2 cells) (Q15388 whole entry): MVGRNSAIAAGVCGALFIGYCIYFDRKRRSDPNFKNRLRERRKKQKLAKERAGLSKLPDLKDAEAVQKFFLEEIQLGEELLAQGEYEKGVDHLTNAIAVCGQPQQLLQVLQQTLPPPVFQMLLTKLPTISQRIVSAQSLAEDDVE

In turn, “Anti-Tom20/Tomm20, clone 2F8.1 (antibody)” came in with a pearson correlation coefficient (PCC) of the colocalization of the delivered antibody with the mitochondrial marker MitoTracker Red CMXRos in assay [1] of 0.58. “Alexa Fluor 594 anti-GFP Antibody, Clone 1GFP63” yielded a pearson correlation coefficient (PCC) of colocalization in assay [2] of 0.8.
